Data published in publication PMC11476191, “Towards controlling activity of a peptide asparaginyl ligase (PAL) by lumazine synthetase compartmentalization” (Faraday Discussions, 2024).

Key:
[1] = target: AaLS-13 (Aquifex aeolicus); assay: SEC; Ni-NTA eluate of the co-expressed proteins on Superose 6; 50 mM sodium phosphate pH 7.0, 150 mM NaCl, 1 mM EDTA, 1 mM TCEP; fractions by SDS-PAGE; repeated in buffer at pH 7.0 and 7.4
[2] = target: the molecule itself; assay: negative stain transmission electron microscopy; purified protein samples (0.05-0.15 mg/mL) on carbon-covered copper grids, uranyl acetate stain, 200 kV

cpAaLS-OaAEP1-C247A
ratio of cpAaLS-OaAEP1-C247A to AaLS-13 in the cage (estimated from SDS-PAGE band intensity) (AaLS-13 per cpAaLS-OaAEP1-C247A) [1]: 3.3

B1: AaLS-13 (other, Aquifex aeolicus)
chain: MEIYEGKLTAEGLRFGIVASRFNHALVGRLVEGAIDCIVRHGGREEDITLVCVPGSWEIPVAAGELARKEDIDAVIAIGVLIEGAEPHFDYIASEVSKGLANLSLELRKPISFGDITDDELEEAIECAGTEHGNKGWEAALSAIEMANLFKSLR
notes: negatively supercharged engineered variant of lumazine synthase from Aquifex aeolicus (AaLS); Self-assembles into a protein cage; also called His6-tagged AaLS-13; AsLS-13; source: E. coli SHuffle T7 Express, co-expressed with cpAaLS-OaAEP1-C247A (IPTG induction); in lysate, then purified (Ni-NTA IMAC, SEC)
binding result [2]: binds
